Numbering of substitutions follows the chain as printed.

Holding throughout (test): EMSA; no nucleotide; apparent; 20 mM HEPES-NaOH pH 7.5 (Results say pH 7.2), 135 mM NaCl, 5% glycerol, 1 mM DTT, 1 mg/ml BSA, 20 min at 20 C; 0.4 nM T(35); G4 assay: 0.1 nM G4 DNA, 2% PEG 8000 instead of glycerol, 5 uM T(35) competitor
One series addresses T1, hPIF1HD wild-type (human, UniProt Q9H611 206-620).
T1 sequence: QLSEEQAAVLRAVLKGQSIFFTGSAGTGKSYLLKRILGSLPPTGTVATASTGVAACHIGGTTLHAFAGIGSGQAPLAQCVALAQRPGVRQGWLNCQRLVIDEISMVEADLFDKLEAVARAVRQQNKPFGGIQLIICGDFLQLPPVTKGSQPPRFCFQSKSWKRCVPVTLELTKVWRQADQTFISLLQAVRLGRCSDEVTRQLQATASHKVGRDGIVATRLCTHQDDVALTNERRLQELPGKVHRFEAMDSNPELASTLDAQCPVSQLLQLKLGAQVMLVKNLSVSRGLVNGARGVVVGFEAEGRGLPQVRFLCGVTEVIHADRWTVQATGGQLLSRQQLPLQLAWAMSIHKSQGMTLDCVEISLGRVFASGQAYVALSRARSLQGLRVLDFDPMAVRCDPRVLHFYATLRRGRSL
As to conditions: protein: recombinant; tags: His tag removed by thrombin, GSRM left at N-term; label: 5' 32P (PNK).

The next series deals with T2, hPIF1HD P291A (human, UniProt Q9H611 206-620, P291A).
T2 sequence: T1 sequence with P86A
The conditions noted are these: protein: recombinant; tags: His tag removed, GSRM left; label: 5' 32P (PNK).

The target in the next series is T3, hPIF1HD E307Q (human, UniProt Q9H611 206-620, E307Q).
T3 sequence: T1 sequence with E102Q
The conditions noted are these: protein: recombinant; tags: His tag removed, GSRM left; label: 5' 32P (PNK).

For another series, the target named is T4, hPIF1HD K414A (human, UniProt Q9H611 206-620, K414A).
T4 sequence: T1 sequence with K209A
The conditions noted are these: protein: recombinant; tags: His tag removed, GSRM left; label: 5' 32P (PNK).

B1: poly-T(35) (ssDNA)
DNA: TTTTTTTTTTTTTTTTTTTTTTTTTTTTTTTTTTT
Regarding B1, the Kd with hPIF1HD wild-type was 2.3 ± 0.3 nM; with hPIF1HD P291A, 1.9 ± 0.6 nM; with hPIF1HD E307Q, 3.6 ± 0.5 nM; with hPIF1HD K414A it was 1.6 ± 0.4 nM.

For the origin of these results see publication PMC6451128, “Structural and functional analysis of the nucleotide and DNA binding activities of the human PIF1 helicase”.
